According to patent publication US20040091465A1, “Therapeutic antiangiogenic compositions and methods” (priority 2002, published 2004):

B1: endostatin: 20 kDa inhibitor of endothelial cell proliferation purified from EOMA conditioned media; C-terminal fragment of collagen XVIII NC1 domain (protein, listed as Homo sapiens)
chain: HSHRDFQPVLHLVALNSPLSGGMRGIRGADFQCFQQARAVGLAGTFRAFLSSRLQDLYSIVRRADRAAVPIVNLKDELLFPSWEALFSGSEGPLKPGARIFSFDGKDVLRHPTWPQKSVWHGSDPNGRRLTESYCETWRTEAPSATGQASSLLGGRLLGQSAASCHHAYIVLCIENSFMTASK
B2: endostatin derived from human: recombinant endostatin from the human sequence, produced in E. coli (protein, listed as Homo sapiens)
chain: B1 chain

Key:
[1] = test system: Mink lung epithelial cells; test: Non-endothelial cell proliferation assay, MLE; assay type: cell-based; conditions: 72 hours
Procedure: (§1) Bovine aortic smooth muscle (SMC), bovine retinal pigment epithelial (RPE), mink lung epithelial (MLE), Lewis lung carcinoma (LLC), and EOMA cells and 3T3 fibroblasts were maintained in a 10% CO2 and 37° C. incubator. For the proliferation assays, cells were washed with PBS and were dispersed in a 0.05% solution of trypsin. Optimal conditions for the cell proliferation assays were established for each different cell type. Fetal calf serum (FCS) was used for the RPE, MLE, and LLC cells and BCS was used for the other cell types. A cell suspension (20,000 cells/ml for SMC, RPE, MLE; 15,000 cells/ml for 3T3; 10,000 cells/ml for LLC, EOMA) was made with DMEM+10% bovine serum+1% GPS, plated onto 24 well culture plates (0.5 ml/well), and incubated (37° C., 10% C02) for 24 hours. The media was replaced with 0.5 ml of DMEM+5% bovine serum+1% GPS and the test sample applied. After 72 hours, cells were dispersed in trypsin, resuspended in Hematall (Fisher Scientific, Pittsburgh, Pa.), and counted by Coulter counter.

[2] = test system: Bovine aortic smooth muscle cells; test: Non-endothelial cell proliferation assay, SMC; assay type: cell-based; conditions: 72 hours
Procedure: as §1

[3] = test system: bovine capillary endothelial cells; test: Bovine capillary endothelial (BCE) cell proliferation assay, 72 hours, bFGF; assay type: cell-based
Procedure: To further characterize the 20 kDa inhibitor, we tested it on several cell lines of endothelial and non-endothelial origin. For the BCE assay, bovine capillary endothelial cells were obtained and grown as previously described (Folkman et al., 1979). For the proliferation assay, cells were washed with PBS and dispersed in a 0.05% solution of trypsin. A cell suspension (25,000 cells/ml) was made with DMEM+10% BCS+1% GPS, plated onto gelatinized 24-well culture plates ([…]), and incubated (37° C., 10% CO2) for 24 hours. The media was replaced with 0.25 ml of DMEM+5% BCS+1% GPS and the test sample applied. After 20 minutes of incubation, media and bFGF were added to obtain a final volume of 0.5 ml of DMEM+5% BCS+1% GPS+1 ng/ml bFGF. After 72 hours, cells were dispersed in trypsin, resuspended in Hematall (Fisher Scientific, Pittsburgh, Pa.), and counted by Coulter counter.

[4] = test system: cells of non-endothelial origin; test: Non-endothelial cell proliferation assays, stated for all lines together; assay type: cell-based; conditions: doses 1 log unit higher than those used to inhibit capillary endothelial cell proliferation
Procedure: as §1

[5] = test system: Lewis Lung carcinoma cells; test: Non-endothelial cell proliferation assay, LLC; assay type: cell-based; conditions: 72 hours
Procedure: as §1

[6] = test system: EOMA hemangioendothelioma cells; test: Non-endothelial cell proliferation assay, EOMA; assay type: cell-based, murine; conditions: 72 hours
Procedure: as §1

[7] = test system: 3T3 fibroblasts; test: Non-endothelial cell proliferation assay, 3T3; assay type: cell-based; conditions: 72 hours
Procedure: as §1

[8] = test system: Bovine retinal pigment epithelial cells; test: Non-endothelial cell proliferation assay, RPE; assay type: cell-based; conditions: 72 hours
Procedure: as §1

[9] = test system: Lewis lung carcinoma primary tumors; test: Systemic therapy of Lewis lung carcinoma primary tumors; assay type: in vivo, mice; conditions: 20 mg/kg/day, FIG. 11

| Molecule | Effect on mink lung epithelial cell proliferation [1] | Effect on bovine aortic smooth muscle cell proliferation [2] | Effect on bovine aortic smooth muscle cell proliferation ([2]; listed as ENDOSTATIN) | Dose at which inhibition of endothelial cell proliferation was first observed ([3]; 72 hour BCE assay) [ng/mL] | Dose giving maximal inhibition of endothelial cell proliferation ([3]; 72 hour BCE assay) [ng/mL] | Effect on bovine capillary endothelial cell proliferation ([3]; 72 hour proliferation assay, 1 ng/ml bFGF) | Inhibition of proliferation of cells of non-endothelial origin [4] | Effect on Lewis lung carcinoma cell proliferation [5] | Effect on Lewis lung carcinoma cell proliferation ([5]; listed as ENDOSTATIN) | Effect on EOMA hemangioendothelioma cell proliferation [6] | Effect on EOMA hemangioendothelioma cell proliferation ([6]; listed as ENDOSTATIN) | Effect on 3T3 fibroblast proliferation [7] | Effect on 3T3 fibroblast proliferation ([7]; listed as ENDOSTATIN) | Effect on bovine retinal pigment epithelial cell proliferation [8] | Inhibition of Lewis lung carcinoma tumor growth by human endostatin [9] |
| --- | --- | --- | --- | --- | --- | --- | --- | --- | --- | --- | --- | --- | --- | --- | --- |
| B1 | NON-INHIBITED | no effect | NON-INHIBITED | 100 | ≥ 600 | INHIBITED | No significant inhibition | no effect | NON-INHIBITED | no effect | NON-INHIBITED | no effect | NON-INHIBITED | NON-INHIBITED | – |
| B2 | – | – | – | – | – | – | – | – | – | – | – | – | – | – | effectiveness |
